Experimental data from US20240368233A1 (University of Washington, published 2024).

Experiments:
[1] = biological target: T1, DFB0; assay: SEC of mixed components; trimer listed in Table 6
T1 construct: Bivalent connector
T1 chain: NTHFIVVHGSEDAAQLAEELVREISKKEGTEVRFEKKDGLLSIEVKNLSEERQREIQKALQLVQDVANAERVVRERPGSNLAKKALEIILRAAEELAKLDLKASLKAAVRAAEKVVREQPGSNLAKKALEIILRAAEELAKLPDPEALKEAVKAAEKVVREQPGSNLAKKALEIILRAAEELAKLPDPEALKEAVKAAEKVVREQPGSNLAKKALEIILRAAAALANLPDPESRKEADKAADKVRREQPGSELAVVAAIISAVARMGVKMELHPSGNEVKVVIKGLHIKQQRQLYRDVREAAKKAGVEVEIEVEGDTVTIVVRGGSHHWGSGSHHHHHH

[2] = biological target: T2, DFB-1; assay: SEC of mixed components; trimer listed in Table 6
T2 construct: Bivalent connector
T2 chain: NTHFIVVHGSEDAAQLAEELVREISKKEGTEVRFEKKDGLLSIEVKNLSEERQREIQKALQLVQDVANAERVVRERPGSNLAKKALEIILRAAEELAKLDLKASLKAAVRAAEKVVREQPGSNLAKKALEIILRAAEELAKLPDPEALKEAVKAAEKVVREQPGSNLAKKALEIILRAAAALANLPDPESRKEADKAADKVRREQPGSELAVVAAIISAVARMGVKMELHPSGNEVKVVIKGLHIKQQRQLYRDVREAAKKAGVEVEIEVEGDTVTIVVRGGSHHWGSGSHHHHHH

[3] = biological target: T3, TF10; assay: SEC (A230) of A---, -BCD and ABCD and negative-stain EM; components named in the legend of FIG. 17A, which paragraph 104 ties to FIG. 4A
T3 construct: Trivalent connector
T3 chain: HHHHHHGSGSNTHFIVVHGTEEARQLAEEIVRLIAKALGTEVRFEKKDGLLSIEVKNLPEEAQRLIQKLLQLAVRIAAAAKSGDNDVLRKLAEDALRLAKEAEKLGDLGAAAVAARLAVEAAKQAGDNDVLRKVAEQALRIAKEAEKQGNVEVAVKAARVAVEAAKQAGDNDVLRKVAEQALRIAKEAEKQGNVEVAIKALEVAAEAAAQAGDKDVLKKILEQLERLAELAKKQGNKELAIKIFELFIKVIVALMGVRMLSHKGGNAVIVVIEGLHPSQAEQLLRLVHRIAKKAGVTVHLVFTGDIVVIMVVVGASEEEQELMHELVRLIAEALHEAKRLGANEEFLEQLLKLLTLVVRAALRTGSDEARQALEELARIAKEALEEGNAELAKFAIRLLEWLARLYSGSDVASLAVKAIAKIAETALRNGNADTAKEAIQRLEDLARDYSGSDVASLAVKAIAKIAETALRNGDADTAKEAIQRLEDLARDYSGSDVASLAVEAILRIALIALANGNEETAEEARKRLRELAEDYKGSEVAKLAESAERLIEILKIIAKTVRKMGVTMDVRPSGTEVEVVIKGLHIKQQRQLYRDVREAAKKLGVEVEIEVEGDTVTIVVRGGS
Description: Complexes and individual components were diluted in 20 mM Tris pH 8.0, 100 mM NaCl. After o/n equilibration of the mixtures at room temperature or 4 degrees C., 500 ul of sample was injected onto a Superdex™ 200 10/300 increase GL (dimers, linear assemblies) or Superose™ 6 increase 10/300 GL (symmetric assemblies) (all columns from GE healthcare) using the absorbance at 230 nm or 473 nm (for GFP tagged components) as read-out. Dimers were mixed at monomer concentrations of 5 μM or higher. Trimer and ABCD tetramer mixtures contained 5 μM of the bivalent connector, and 7.5 μM of each terminal cap (lower absolute concentrations with the same ratios were used for some trimers). ABCA tetramer mixtures contained 5 μM per bivalent connector and 15 μM terminal cap. The hexamer mixture contained 3 μM of components C and D, 3.6 μM of B and E, and 4.4 μM of A and F. The branched assembly shown in FIG. 4A contained 2.8 μM of the trivalent connector and 4 μM of each cap. For the exchange experiment shown in FIG. 5A, the ABC trimer was preincubated at concentrations of 6 μM B and 9 μM each of A and C. C′ was then added to reach a final concentration of 2 μM B, 3 μM each of A and C, and 6 μM C′.
SEC peak fractions were concentrated prior to negative stain EM screening. Samples were then immediately diluted 5 to 150 times in TBS buffer (25 mM Tris pH 8.0, 25 mM NaCl) depending on sample concentration. A final volume of 5 μL was applied to negatively glow discharged, carbon-coated 400-mesh copper grids (01844-F, TedPella, Inc.), then washed with Milli-Q™ Water and stained using 0.75% uranyl formate as previously described (53). Air-dried grids were imaged on a FEI Talos L120C TEM (FEI Thermo Scientific, Hillsboro, OR) equipped with a 4K×4K Gatan OneView™ camera at a magnification of 57,000× and pixel size of 2.51. Micrographs were imported into CisTEM software or cryoSPARC™ software and a circular blob picker was used to select particles which were then subjected to 2D classification. […]

[4] = biological target: T4, TF3; assay: SEC of the trivalent connector TF3, its three caps and the full mixture, with SDS-PAGE of the fractions; components named in the legend
T4 construct: Trivalent connector
T4 chain: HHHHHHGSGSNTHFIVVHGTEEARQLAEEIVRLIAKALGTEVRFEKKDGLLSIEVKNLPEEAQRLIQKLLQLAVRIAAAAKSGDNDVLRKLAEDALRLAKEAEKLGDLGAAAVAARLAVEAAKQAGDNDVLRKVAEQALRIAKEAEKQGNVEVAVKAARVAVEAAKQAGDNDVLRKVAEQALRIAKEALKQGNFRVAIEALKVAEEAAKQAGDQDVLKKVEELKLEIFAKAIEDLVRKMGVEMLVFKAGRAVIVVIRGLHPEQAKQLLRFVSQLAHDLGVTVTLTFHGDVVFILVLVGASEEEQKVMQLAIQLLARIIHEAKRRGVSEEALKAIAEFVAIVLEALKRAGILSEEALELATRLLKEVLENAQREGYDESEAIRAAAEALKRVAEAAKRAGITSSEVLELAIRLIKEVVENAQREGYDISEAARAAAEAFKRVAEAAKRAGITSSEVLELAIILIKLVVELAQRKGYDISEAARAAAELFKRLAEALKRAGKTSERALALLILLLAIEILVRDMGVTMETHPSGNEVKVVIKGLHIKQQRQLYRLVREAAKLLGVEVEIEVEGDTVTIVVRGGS

Measured: binding result

B1: 274A53 (designed binder)
chain: TTNFHLINGSEEARQLIEKAVRAISKKEGTEVHFEKSDGTLEIRVKNLHEKREREIKKVIELILEVAAAERIVRERPGSNLAKKALEIILRAAEELAKADVDAALEAAVRAAEKVVREQPGSNLAKKALEIILRAAEELAKLPDPEALKEAVKAAEKVVREQPGSELAKKALEIIERAAEELKKSPDPEAQKEAKKAEQKVREESGSHHWGSGLNDIFEAQKIEWHEGSHHHHHH
notes: also called LHD274A DHR53 stop; LHD274A53
binds: all assays above

B2: 101B62 (designed binder)
chain: HHHHHHGSGLNDIFEAQKIEWHEAENLYFQSGSNDEKRKRAEKALQRAQEAEKKGDVEEAVRAAQEAVRAAKESGDNDVLRKVAEQALRIAKEAEKQGNVEVAVKAARVAVEAAKQAGDNDVLRKVAEQALRIAKEALKQGNVDVAAKAAQVAEEAAKQAGDQDVLRKVKEVQIEIVLAAIELTVRKMGVTMETHRSGREVKVVIKGLHESQQEQLLEDVLRIAELAGVRVRIRFKGDTVTIVVRG
notes: also called LHD101B62
binds: all assays above
